Measurements as given in patent US20150329626A1 (Eli Lilly, published 2015).

Legend:
[1] = target: human VEGFR2 on cells (ECFC, HMVEC-d) (human, UniProt P35968 20-1356); assay: cell-based or functional assay
human Ang2 [2] = target: T1, human Ang2 (human, UniProt O15123 19-496); assay: cell-based or functional assay
T1 sequence: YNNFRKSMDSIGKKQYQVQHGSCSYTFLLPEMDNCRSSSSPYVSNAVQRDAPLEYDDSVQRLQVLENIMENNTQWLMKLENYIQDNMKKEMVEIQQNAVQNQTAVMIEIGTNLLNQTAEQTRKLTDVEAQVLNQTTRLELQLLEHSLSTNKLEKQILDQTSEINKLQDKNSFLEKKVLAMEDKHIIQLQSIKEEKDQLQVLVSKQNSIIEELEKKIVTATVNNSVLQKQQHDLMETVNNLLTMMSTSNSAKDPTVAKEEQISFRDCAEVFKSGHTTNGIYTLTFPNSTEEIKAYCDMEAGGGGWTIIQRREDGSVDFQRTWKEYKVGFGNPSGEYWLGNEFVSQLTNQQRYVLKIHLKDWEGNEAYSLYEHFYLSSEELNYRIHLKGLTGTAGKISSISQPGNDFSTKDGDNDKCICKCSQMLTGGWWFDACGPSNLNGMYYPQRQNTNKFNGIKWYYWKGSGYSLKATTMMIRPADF

mouse Ang2 = target: T2, mouse Ang2 (mouse, UniProt O35608 19-496, limits assumed); assay: Biacore SPR, 37 C, n = 3, compound captured on Protein A
T2 sequence (looked up): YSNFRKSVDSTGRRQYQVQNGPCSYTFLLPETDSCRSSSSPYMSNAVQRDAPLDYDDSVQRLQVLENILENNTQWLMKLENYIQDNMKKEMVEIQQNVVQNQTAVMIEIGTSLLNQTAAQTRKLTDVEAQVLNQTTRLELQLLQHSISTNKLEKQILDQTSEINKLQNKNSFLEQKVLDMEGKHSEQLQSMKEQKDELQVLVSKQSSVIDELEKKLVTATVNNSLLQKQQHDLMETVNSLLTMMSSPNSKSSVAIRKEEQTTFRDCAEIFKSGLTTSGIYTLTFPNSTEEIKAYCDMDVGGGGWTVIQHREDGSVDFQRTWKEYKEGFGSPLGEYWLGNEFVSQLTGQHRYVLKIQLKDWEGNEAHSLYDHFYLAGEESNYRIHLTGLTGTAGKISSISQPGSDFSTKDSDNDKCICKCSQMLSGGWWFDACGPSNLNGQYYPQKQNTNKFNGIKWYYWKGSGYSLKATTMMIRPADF

rabbit Ang2 = target: T3, rabbit Ang2 (rabbit, UniProt G1T9B3 19-496); assay: as above
T3 sequence: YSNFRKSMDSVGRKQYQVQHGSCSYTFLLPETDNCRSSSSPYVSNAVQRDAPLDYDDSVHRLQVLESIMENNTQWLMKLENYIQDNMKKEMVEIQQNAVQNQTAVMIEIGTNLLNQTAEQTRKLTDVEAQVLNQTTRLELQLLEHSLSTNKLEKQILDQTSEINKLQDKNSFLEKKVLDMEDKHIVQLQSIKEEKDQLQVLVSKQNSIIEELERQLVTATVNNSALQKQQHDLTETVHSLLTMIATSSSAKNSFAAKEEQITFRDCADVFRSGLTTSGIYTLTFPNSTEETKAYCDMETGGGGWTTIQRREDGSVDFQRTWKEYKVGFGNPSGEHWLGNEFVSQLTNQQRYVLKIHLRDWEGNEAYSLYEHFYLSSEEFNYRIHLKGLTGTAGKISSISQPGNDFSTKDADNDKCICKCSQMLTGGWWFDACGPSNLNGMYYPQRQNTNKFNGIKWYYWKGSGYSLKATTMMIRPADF

human Ang2 [3] = target: T1, human Ang2; assay: Biacore SPR, 25 C, compound captured on Protein A, Ang2 as analyte
[4] = target: T4, human VEGFR2 extracellular domain (human, UniProt P35968 20-764); assay: Biacore SPR, 25 C, compound captured on Protein A, VEGFR2-ECD as analyte
T4 construct: also called hVEGFR2-ECD; human VEGFR2-ECD

[5] = target: T4, human VEGFR2 extracellular domain; assay: Biacore SPR, 37 C, n = 3, compound captured on Protein A, VEGFR2-ECD as analyte
[6] = target: T5, cyno VEGFR2 extracellular domain (cynomolgus monkey, UniProt A0A2K5VE63 20-764); assay: as above
T5 construct: extracellular domain; also called cynomolgus monkey VEGFR2

[7] = target: T6, rabbit VEGFR2 extracellular domain (rabbit, UniProt G1SN50 20-764); assay: as above
T6 construct: extracellular domain

[8] = target: T7, dog VEGFR2 extracellular domain (dog, UniProt Q2XPT7 20-763); assay: as above
T7 construct: extracellular domain

human Ang2 [9] = target: T1, human Ang2; assay: competition ELISA: blocking of biotinylated human Ang2 binding to plate-coated human Tie2-Fc

T4 sequence (P35968 20-764): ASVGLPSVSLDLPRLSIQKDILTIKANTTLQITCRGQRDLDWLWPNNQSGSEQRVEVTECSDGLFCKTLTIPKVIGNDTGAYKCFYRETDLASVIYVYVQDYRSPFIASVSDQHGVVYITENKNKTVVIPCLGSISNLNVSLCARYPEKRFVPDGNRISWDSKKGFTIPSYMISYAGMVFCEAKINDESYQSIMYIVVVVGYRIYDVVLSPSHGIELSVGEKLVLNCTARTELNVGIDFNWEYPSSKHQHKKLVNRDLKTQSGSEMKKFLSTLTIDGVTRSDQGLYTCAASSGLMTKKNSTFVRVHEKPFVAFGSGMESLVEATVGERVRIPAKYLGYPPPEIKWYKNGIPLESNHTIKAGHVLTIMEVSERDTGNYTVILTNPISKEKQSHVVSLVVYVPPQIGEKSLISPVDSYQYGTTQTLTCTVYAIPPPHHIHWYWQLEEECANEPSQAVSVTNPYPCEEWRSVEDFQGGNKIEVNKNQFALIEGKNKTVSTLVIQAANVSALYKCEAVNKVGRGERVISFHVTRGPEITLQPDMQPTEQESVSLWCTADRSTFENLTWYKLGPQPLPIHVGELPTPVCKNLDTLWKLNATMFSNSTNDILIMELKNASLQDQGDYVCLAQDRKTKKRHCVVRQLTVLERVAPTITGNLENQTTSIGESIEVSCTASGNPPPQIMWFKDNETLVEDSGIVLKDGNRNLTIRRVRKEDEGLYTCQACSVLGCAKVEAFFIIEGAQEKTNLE
T6 sequence (G1SN50 entry or part of it): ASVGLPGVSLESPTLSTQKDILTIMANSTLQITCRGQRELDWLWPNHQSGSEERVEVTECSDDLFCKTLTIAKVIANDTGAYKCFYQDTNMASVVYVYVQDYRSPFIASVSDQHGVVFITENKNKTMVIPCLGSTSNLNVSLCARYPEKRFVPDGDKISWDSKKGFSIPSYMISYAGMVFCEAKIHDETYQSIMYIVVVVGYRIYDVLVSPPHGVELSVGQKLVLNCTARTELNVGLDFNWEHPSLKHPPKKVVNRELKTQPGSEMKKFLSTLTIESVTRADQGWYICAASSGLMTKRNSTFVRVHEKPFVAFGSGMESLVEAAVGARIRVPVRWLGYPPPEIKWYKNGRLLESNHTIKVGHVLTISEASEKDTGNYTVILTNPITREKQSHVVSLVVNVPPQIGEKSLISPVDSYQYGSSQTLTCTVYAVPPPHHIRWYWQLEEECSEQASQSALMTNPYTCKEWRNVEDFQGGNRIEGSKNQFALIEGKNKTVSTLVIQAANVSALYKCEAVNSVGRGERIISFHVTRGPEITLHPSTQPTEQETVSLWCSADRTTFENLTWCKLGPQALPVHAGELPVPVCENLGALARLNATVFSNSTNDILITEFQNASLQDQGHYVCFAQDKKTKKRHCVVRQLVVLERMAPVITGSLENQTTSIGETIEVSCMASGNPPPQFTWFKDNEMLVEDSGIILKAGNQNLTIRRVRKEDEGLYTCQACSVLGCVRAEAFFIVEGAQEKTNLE
T5 sequence (A0A2K5VE63 entry or part of it): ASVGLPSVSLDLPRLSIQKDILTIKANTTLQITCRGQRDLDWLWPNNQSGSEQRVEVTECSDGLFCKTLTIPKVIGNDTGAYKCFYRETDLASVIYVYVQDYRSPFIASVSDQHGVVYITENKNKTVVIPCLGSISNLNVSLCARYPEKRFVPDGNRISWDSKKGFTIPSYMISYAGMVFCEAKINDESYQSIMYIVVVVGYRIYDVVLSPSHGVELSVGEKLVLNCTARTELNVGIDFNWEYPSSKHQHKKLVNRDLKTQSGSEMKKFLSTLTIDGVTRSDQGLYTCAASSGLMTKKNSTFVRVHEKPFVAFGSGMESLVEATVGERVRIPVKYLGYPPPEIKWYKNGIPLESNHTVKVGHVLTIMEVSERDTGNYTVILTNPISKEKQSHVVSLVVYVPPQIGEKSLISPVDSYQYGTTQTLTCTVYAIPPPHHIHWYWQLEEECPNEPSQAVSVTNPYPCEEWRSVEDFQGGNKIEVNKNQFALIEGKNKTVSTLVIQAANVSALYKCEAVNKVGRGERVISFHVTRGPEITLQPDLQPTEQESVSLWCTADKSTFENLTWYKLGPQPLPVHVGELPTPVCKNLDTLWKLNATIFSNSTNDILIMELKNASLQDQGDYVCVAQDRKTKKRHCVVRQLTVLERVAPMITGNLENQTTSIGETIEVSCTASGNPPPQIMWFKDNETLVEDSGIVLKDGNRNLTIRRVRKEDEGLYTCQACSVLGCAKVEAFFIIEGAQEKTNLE
Chain of human VEGFR2 on cells (ECFC, HMVEC-d) (P35968 20-1356): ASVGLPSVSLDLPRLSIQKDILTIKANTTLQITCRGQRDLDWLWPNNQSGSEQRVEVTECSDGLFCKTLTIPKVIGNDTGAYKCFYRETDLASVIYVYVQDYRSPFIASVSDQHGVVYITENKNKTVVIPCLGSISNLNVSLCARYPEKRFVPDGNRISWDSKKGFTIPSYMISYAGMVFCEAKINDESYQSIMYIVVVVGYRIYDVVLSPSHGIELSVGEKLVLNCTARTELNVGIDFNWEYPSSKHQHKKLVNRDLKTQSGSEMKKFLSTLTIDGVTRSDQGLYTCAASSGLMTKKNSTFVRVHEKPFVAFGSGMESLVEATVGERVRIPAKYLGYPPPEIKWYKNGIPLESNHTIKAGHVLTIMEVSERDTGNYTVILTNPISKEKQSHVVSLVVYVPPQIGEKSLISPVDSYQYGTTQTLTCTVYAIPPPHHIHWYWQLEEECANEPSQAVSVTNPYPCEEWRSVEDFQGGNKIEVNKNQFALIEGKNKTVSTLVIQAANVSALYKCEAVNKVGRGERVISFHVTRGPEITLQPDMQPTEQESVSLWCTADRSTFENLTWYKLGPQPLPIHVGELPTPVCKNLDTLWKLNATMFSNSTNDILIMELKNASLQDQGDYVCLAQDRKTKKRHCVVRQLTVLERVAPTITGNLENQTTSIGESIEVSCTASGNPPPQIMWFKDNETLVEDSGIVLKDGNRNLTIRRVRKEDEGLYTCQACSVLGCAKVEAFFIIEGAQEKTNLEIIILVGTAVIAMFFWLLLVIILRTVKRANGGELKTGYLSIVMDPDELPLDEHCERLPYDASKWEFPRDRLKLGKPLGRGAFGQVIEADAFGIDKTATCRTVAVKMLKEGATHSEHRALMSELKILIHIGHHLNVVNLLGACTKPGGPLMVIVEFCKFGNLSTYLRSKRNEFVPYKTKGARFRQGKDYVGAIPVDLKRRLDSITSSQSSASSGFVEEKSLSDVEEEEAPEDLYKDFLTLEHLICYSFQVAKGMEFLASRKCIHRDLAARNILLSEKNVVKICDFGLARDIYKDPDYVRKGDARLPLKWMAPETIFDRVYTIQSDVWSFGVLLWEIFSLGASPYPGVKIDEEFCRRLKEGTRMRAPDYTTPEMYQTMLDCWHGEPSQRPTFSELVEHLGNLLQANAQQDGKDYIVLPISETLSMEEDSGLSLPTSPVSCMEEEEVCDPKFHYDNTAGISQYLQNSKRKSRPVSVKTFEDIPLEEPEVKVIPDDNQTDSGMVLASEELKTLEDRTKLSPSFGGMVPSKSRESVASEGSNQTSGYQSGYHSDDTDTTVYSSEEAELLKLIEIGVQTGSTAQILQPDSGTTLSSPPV

B1: Compound F (bispecific antibody, human IgG4 S228P, kappa, F234A L235A)
heavy: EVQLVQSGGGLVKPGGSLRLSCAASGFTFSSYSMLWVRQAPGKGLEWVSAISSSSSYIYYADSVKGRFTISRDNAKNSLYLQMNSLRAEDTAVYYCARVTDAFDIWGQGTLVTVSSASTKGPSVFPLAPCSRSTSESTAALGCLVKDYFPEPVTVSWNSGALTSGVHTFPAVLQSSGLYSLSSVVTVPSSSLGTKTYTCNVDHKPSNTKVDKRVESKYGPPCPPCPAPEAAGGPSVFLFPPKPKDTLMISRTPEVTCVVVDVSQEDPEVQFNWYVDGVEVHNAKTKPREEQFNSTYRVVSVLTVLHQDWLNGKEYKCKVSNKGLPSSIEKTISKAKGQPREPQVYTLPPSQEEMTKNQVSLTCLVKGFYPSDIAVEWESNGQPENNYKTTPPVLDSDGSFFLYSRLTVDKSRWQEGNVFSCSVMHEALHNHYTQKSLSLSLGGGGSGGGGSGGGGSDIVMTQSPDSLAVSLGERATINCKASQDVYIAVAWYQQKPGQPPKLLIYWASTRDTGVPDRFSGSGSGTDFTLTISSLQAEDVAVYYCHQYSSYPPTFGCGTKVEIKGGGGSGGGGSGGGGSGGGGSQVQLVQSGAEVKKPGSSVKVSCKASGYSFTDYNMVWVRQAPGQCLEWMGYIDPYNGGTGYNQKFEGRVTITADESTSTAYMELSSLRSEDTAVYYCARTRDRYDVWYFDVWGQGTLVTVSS
light: DIQMTQSPSSVSASVGDRVTITCRASRGIDNWLTWYQQKPGKAPKLLIYEASSLQSGVPSRFSGSGSGTDFTLTISSLQPEDFATYYCQQAKAFPPTFGGGTKVDIKRTVAAPSVFIFPPSDEQLKSGTASVVCLLNNFYPREAKVQWKVDNALQSGNSQESVTEQDSKDSTYSLSSTLTLSKADYEKHKVYACEVTHQGLSSPVTKSFNRGEC
notes: also called Cmpd F
For B1, the “inhibition of human VEGF165-induced proliferation of HMVEC-d (IC50)” value [1] was 19.2 nM, the “inhibition of human VEGF-induced cord formation in ADSC/ECFC co-culture (IC50)” value [1] was 6.04 nM and the “inhibition of human Ang2 induced phospho-Tie2 in CHO-Tie2 cells (IC50)” value (human Ang2 [2]) was 0.587 nM. The Kd (mouse Ang2) was 0.23 nM, the koff (mouse Ang2) was 8e-05 s⁻¹ and the kon (mouse Ang2) was 360000 M⁻¹ s⁻¹. It also gave a Kd (rabbit Ang2) of 0.42 nM, a koff (rabbit Ang2) of 0.00011 s⁻¹ and a kon (rabbit Ang2) of 270000 M⁻¹ s⁻¹. For the same binder, the Kd (human Ang2 [3]) was 0.673 nM, the koff (human Ang2 [3]) was 0.000105 s⁻¹ and the kon (human Ang2 [3]) was 156000 M⁻¹ s⁻¹. The Kd [4] was 0.721 nM, the koff [4] was 1.8e-05 s⁻¹ and the kon [4] was 25000 M⁻¹ s⁻¹. For the same binder, the Kd [5] was 4.6 nM, the koff [5] was 0.00012 s⁻¹ and the kon [5] was 25000 M⁻¹ s⁻¹. For the same binder, the Kd [6] was 3.3 nM, the koff [6] was 0.00011 s⁻¹ and the kon [6] was 34000 M⁻¹ s⁻¹. The Kd [7] was 6.1 nM, the koff [7] was 0.00023 s⁻¹ and the kon [7] was 38000 M⁻¹ s⁻¹. It also gave a Kd [8] of 37 nM, a koff [8] of 0.0015 s⁻¹ and a kon [8] of 41000 M⁻¹ s⁻¹. For the same binder, the IC50 (human Ang2 [9]) was 0.034 nM.
